Reference: publication PMC9597168, “ATP-dependent polymerization dynamics of bacterial actin proteins involved in Spiroplasma swimming” (Open Biology, 2022)
Positions count from the first letter of the chain named. In names and notes the source's numbering stands.

What was measured:
SpeMreB5 = molecular target: T1, SpeMreB5 (Spiroplasma eriocheiris, UniProt A0A0H3XIQ3); experiment: Pi release assay (MESG coupled, A360); assay type: biochemical; conditions: 2 mM ATP, 2 mM MgCl2, pH 7.5, 100 mM KCl, about 25 °C
T1 construct: gene mreB5; full length, 6xHis fusion, E. coli expressed, purified as monomer
T1 sequence (A0A0H3XIQ3 1-350): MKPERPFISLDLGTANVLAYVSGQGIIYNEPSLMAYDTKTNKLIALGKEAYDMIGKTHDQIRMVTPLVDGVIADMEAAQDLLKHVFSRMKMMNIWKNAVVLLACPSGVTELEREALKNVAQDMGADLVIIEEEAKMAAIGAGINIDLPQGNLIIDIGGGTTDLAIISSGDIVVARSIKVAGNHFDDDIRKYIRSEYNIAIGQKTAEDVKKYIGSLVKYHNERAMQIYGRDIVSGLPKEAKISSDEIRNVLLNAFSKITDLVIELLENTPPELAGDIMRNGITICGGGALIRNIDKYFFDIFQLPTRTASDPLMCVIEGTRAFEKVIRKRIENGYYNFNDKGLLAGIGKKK

[1] = molecular target: SpeMreB5 D162S (Spiroplasma eriocheiris); experiment: sedimentation assay (ultracentrifugation of polymers, SDS-PAGE of pellet and supernatant); buffer S (20 mM Tris-HCl pH 8.0, 1 M NaCl, 200 mM L-arginine-HCl pH 8.0, 5 mM DTT, 2 mM MgCl2, 2 mM ATP), 1 h, 436 000 x g for 120 min at 23°C; bulk critical concentration = x-intercept of the linear fit of pellet against total concentration
[2] = molecular target: SpeMreB5 T160A (Spiroplasma eriocheiris); experiment: as above
[3] = molecular target: SpeMreB5 T160K (Spiroplasma eriocheiris); experiment: as above
[4] = molecular target: Spiroplasma eriocheiris MreB3 wild-type (Spiroplasma eriocheiris); experiment: as above
[5] = molecular target: Spiroplasma eriocheiris MreB5 wild-type (Spiroplasma eriocheiris); experiment: as above
[6] = molecular target: Spiroplasma eriocheiris MreB5 wild-type (Spiroplasma eriocheiris); experiment: sedimentation assay (ultracentrifugation of polymers, SDS-PAGE of pellet and supernatant); buffer S with Mg-AMPPNP instead of Mg-ATP; bulk critical concentration = x-intercept of the linear fit
[7] = molecular target: Spiroplasma eriocheiris MreB5 wild-type (Spiroplasma eriocheiris); experiment: sedimentation assay (ultracentrifugation of polymers, SDS-PAGE of pellet and supernatant); buffer S with Mg-ADP instead of Mg-ATP; bulk critical concentration = x-intercept of the linear fit
[8] = molecular target: the molecule itself; experiment: negative-staining electron microscopy; polymerized 3 h at room temperature in standard buffer (20 mM Tris-HCl pH 7.5, 100 mM KCl, 5 mM DTT) with 2 mM MgCl2 and 2 mM ATP; 10 µM SpeMreB3, 5 µM SpeMreB5, diluted to 3 µM before the grid
[9] = molecular target: the molecule itself; experiment: sedimentation assay (ultracentrifugation of polymers, SDS-PAGE of pellet and supernatant); buffer S (20 mM Tris-HCl pH 8.0, 1 M NaCl, 200 mM L-arginine-HCl pH 8.0, 5 mM DTT, 2 mM MgCl2, 2 mM ATP), 1 h, 436 000 x g for 120 min at 23°C; bulk critical concentration = x-intercept of the linear fit of pellet against total concentration

Nc1ncnc2c1ncn2[C@@H]1O[C@H](COP(=O)(O)OP(=O)(O)OP(=O)(O)O)[C@@H](O)[C@H]1O [ATP]
Pi release assay (MESG coupled, A360) (SpeMreB5): SpeMreB5 hydrolysed ATP and released Pi over time

SpeMreB5 D162S (from UniProt A0A0H3XIQ3 1-350) (natural protein)
critical concentration (CC) [1]: 0.07 µM

SpeMreB5 T160A (from UniProt A0A0H3XIQ3 1-350) (natural protein)
critical concentration (CC) [2]: 0.15 µM

SpeMreB5 T160K (from UniProt A0A0H3XIQ3 1-350) (natural protein)
critical concentration (CC) [3]: 0 µM

Spiroplasma eriocheiris MreB3 wild-type (from UniProt A0A0H3XJK5 1-352) (natural protein)
critical concentration (CC) [4]: 2.8 µM

Spiroplasma eriocheiris MreB5 wild-type (from UniProt A0A0H3XIQ3 1-350) (natural protein)
critical concentration (CC) [5]: 0.14 µM
critical concentration (CC) [6]: 0.29 µM
critical concentration (CC) [7]: 0.39 µM

B1: SpeMreB3 S176D (natural protein)
chain: MTITDVLKNTFNISPKPPRKFIAIDLGTTNSIAYIGGRGIIYNEASVMAYETGTKKLVALGEDARKLIGKTHDKIEIYTPLRNGAITDLRIAEEFIQHIGNRAKVQDVWKGSIVLIACPKSVTELERRAMVEMCKHLGADLVQVEEDTLMAALGAGANIFAPKGTFILDIGGGKTDAGIISAGGIVVSKSIKIAGNYIDEEILKYIRAKHTISIGVVTAEQIKKQIGSLYKGKETKKMVIFGRDVVTGMPKETEILDSEIRKLLISIFSSITQLVTDILESTPAELAGDAVMNGLLVSGGCAQISGLKEFLESYFQIPVKIAKNPQTAVIDGCIAYEKEIRDRLIEENKKNK
binding result [8]: binds

B2: SpeMreB3 D147E (natural protein)
chain: B1 chain with D147E, D176S
critical concentration (CC) [9]: 1.26 µM

B3: SpeMreB3 K174T (natural protein)
chain: B1 chain with K174T, D176S
critical concentration (CC) [9]: 2.2 µM

B4: SpeMreB3 K174T/S176D (natural protein)
chain: B1 chain with K174T
critical concentration (CC) [9]: 2.15 µM
